Data published in paper PMC3629177 (PLoS ONE, 2013).
Residue numbers refer to the chain shown, from its start.

B1: HuMab 16_(L-40) (antibody, V domains shown)
VH: EVQLVQSGGGLGHPGGSLRLSCAGSGFTFSSYSMHWLRQAPGKGLKWVSAIGTAGGTYYADSVKGRFTISRDNAKNSFYLQMNSLRAEDMAVYYCAREYFFGSGNYGYWGQGTLVTASS
VL: not shown
B2: HuMab 37_(L-63) (cloned, IgG1) (antibody, V domains shown)
VH: EVQLVQSGGGLVHPGGSLRLSCAGSGFTFSRYALHWVRQAPGKGLEWVSAIGIGGGTFYADSVKGRFTISRDNAKNSLYLQMNSLRAEDMAVYYCARDTYYDFFDAFDIWGQGTMVTVSS
VL: DIQMTQSPSSLSASVGDRVTITCRASQGISSWLAWYQQKPEKAPKSLIYAASSLQSGVPSRFSGSGSGTDFTLTISSLQPEDFATYYCQQYDSYPLTFGGGTKVEIK
B3: HuMab 11_(L-80) (antibody, V domains shown)
VH: QVQLVESGGGVVQPGRSLRLSCAASGFTFSNYGIHWVRQAPGKGLEWVAIIWHDGSNSYYVDSVKGRFTMSRDNSKNTVYLQMNSLRAEDTAVYFCARIIGGAFDIWGQGTMVTVSS
VL: B2 VL with D92N, L96I, G100Q, K103R, V104L
B4: HuMab 33_(L-112) (antibody, V domains shown)
VH: EVQLVESGGGLVQPGGSLRLSCAASGFTFSRYWMSWVRQAPGKGLEWMANIKQDGSETHYVDSVKGRFTISRDNAKNSLYLQMNSLRAEDTAVYYCAIGDYWGQGTLVTVSS
VL: B2 VL with G28D, D92K
B5: HuMab 56c (antibody, V domains shown)
VH: QVQVVQSGAEVKKPGSSVKVSCKASGGTFSSYAISWVRQAPGQGLEWMGRIIPILGTAKYAQKFQGRVTIIADKSTSTAYMELSSLRSEDTAVYYCARDQDYYGMDVWGQGTTVTVSS
VL: B2 VL with L11V, Q38H, E41G, S46L, Y91T, D92N, S93N, Y94F, L96W, G100Q
B6: HuMab 22c (antibody, V domains shown)
VH: QVQLVESGGGVVQPGRSLRLSCAASGFTFRSYGMHWVRQAPGKGLEWVTLIWYDGSNKYYADSVKGRFTISRDNSKNTLYLQMNSLRVEDTAVYYCAREGFNWDAFDIWGQGTMVTVSS
VL: EIVLTQSPGTLSLSPGERATLSCRASQSVRISYLAWYQQKPGQAPRLLIYGTFSRATGIPDRFSGSGSGTDFTLTISRLEPEDFAVYYCQQYGSSMYTFGQGTKLEIK
B7: HuMab 155c (antibody, V domains shown)
VH: EVQLVQSGAEVKKPGESLKISCKGSGYSFTSYWIGWVRQMPGKGLEWMGIIYPGDSDTRYSPSFQGQVTISADKSISTAYLQWSSLKASDTAMYYCARQGSGWYGNYFDYWGQGTLVTVSS
VL: B6 VL with V29F, R30S, I31R, S32G, T52A, F53S, A56V, G93D, M96P

Target: T1, hSOD1-A4V-myc (Homo sapiens, UniProt P00441, point mutant)
T1 construct: human SOD1 with the ALS mutation A4V; source: HEK-293T/17, transiently transfected (pcDNA), in lysate; not shown: myc, C-terminal, kept
Experiment: co-IP; soluble lysate of transfected HEK-293T/17 cells (PBS + 0.1% Triton X-100) immunoprecipitated with 2 µg HuMab and protein A sepharose; immunoblot with anti-myc 9E10
Conditions: one partner purified

| binding result | Binder |
| --- | --- |
| binds | B1 |
| binds | B2 |
| binds | B3 |
| binds | B4 |
| binds | B5 |
| binds | B6 |
| binds | B7 |
